Target: Native MsrA/B on the surface of N. gonorrhoeae 1291 cells (N. gonorrhoeae strain 1291) (UniProt P14930)
Test: whole cell ELISA, N. gonorrhoeae 1291 strains

Chain of Native MsrA/B on the surface of N. gonorrhoeae 1291 cells (N. gonorrhoeae strain 1291) (P14930 1-519, tags or fused parts left off): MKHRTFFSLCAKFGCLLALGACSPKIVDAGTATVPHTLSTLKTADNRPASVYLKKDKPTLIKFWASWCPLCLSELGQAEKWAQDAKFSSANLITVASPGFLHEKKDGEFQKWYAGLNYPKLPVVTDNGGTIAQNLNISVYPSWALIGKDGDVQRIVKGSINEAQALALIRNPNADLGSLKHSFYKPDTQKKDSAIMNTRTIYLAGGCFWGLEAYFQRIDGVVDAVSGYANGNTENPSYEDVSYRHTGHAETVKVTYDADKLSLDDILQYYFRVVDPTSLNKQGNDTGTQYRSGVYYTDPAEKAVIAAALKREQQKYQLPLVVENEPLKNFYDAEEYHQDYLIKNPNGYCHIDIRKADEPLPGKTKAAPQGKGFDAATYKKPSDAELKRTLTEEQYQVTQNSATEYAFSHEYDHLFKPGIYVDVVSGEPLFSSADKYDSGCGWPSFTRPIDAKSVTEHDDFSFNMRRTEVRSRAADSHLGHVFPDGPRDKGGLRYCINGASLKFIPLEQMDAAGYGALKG

## Pre-immune mouse sera (antibody)
  ELISA titre vs whole cells: < 200 titre

— patent publication US20250352630A1
